Results on 21 sequences are retold here after the DeepSol protein solubility set.

The series is described as follows: soluble on expression in E. coli; label from the status in PepcDB or PDB records.
As for “MGSDKIHHHHHHMKGEETLKKALLNIGKESPFYYYVLLGVKLVPSKNTRNLKLSFSTTGDVMLLYNPEAIGKKPLRMVQALLIHEVMHIVLQHFRIKPKDERDRKIWDLAMDAAINQYIPELAAFGVPLDVLVKEGHTTDNDTLFVLPPEWMMFENAEMYHKWILEEMERLGRYDVEVVAEFRDNVDDHSGLFEEDVPVEMILDLTKDRTKKAFNLFGNTLPSGVRREVSLSLENPELDWKTLLRRFFGVSIKADRYTTPLRPNRRYDHLPGWRNEYLPRIAAVVDTSGSIVEKELNQFISELEKISNIAGEELWLVQVDKSVTSAMKYRSGKWKDLEIVGGGSTDLQPAIDYSERVLRSEGTVVFTDGHTDVPIARRRILFVLSRYHNEEFLKEARKMYGRDAVVVLS”, the “soluble on expression in E. coli” value is “not soluble”.
The entry for “GSSEDKITVHFINRDGETLTTKGKIGDSLLDVVVQNNLDIDGFGACEGTLACSTCHLIFEQHIFEKLEAITDEENDMLDLAYGLTDRSRLGCQICLTKAMDNMTVRVPDAVSDARESIDMGMNSSKIE” is “soluble”.
As to “MGSDKIHHHHHHMASLQIAHNTRIVKEAARIAGFDYCGISAARFLEEEAPRLESWLNRNQHGTMSWMENYFDKRLDPRKLVDGAKSVVSVLLNYTPAPEDEILSTGETKISRYAYGKDYHYVLKDKFKQMLQHITEQIGEVNGRAFVDSAPVMDKAWAKQGGLGWVGKHSNIITKDSGSYFFIGELIIDLELDADGPIKDYCGTCTRCIDACPTNAITEPYQVDGSKCISYLTIELKEQIPSEFKEQMQGWAFGCDICQEVCPWNRFAQPINKNEFSPSEELKKYFEMPLKEITKEVFNILFKDSTIKRTKIEGLSRNLTFIKKET”, the “soluble on expression in E. coli” value is given as “not soluble”.
Take “MQTISDNAANAIQEIFGRSKALIGMIHCPAFPGAPRYRNASMDAIYDACMRDAERLIEGGMHGLIVENHGDVPFSKPDDIGPETSAFMSVVTDRIVRTAGVPVGINVLANAPIPAFAIAKAGGAKFIRVNQWANAYVANEGFMEGRAAEAMRYRSLLRAEHIKVFADSHVKHGAHAITADRSIDELTRDLAFFDADGVIATGQRTGNSASLEEIEEIGAATHLPLLVGSGVNEGNIVEILKRTSGVIVASSLKEGGVWWNPVELARVRSFVAAARPGLEALEHHHHHH”: the “soluble on expression in E. coli” value was “soluble”.
The entry for “MDRSFCDAGCGVGSLSLPLAQRGAQAVYASDISAKMVEEARERASQIPNLNNIQLEVSDLASLSGRYDTVICLDVLIHYPESDAAAMLSHLCSLAEQRVLVSFAPKSPVLNVLKRIGQFFPGASKTTRAYQHSETAIAAALAANGFQVQRRAFNKAPFYFSLLLEAVRTALEHHHHHH” is “soluble”; for “MQAEGEKSDKISKISTGIPRVDELLYGGFDGRDNIVVSGNNFSQKRSFIYNFIKSSANSGMKVIIINVDGSSESLLADLARRGTDLENIILLDGFSKNFQEKVPPNAEVIDDPSNVSSVLKQYMLRAQKEKDFIFVFLSATPYLMDFNDQNRKFFVQLVHWNRKNSLLSTYVLDDFVGQTTAEWFAYMMDFSLYFKNDGDYDYMRVLSLKPVRTKDWIRIYKDSDVFTLGSFNVERIR” it is “not soluble”; for “MDELNSPLGERAQGASLAHVVWSDPQWLERYPLTFENVLTYFSRSPFYDPTCNNELVRMQMHPELQGEMLYYTQREEELLLGMQGVEYVPLCSSDAHELFIIRKQVRRSADEVHVTNLYYILYGQVYEAPAFSTVLLVRLRQSADFLVRSLGLLRQWLSKKEYGEPGATGHGHEDTLLLQLLRKAQQRNRQL” it is “not soluble”.
With “MGRYSVKRYKTKRRTRDLDLIYNDLSTKESVQKLLNQPLDETKPGLGQHYCIHCAKYMETAIALKTHLKGKVHKRRVKELRGVPYTQEVSDAAAGYNLNKFLNRVQEITQSVGPEKESNEALLKEHLDSTLANVKTTEPTLPWAAADAEANTAAVTEAESTASAST” the entry was “soluble”; with “MAPKVFYISDGTAITAEVFGHAVLSQFPLEFESLTIPFVETLAKAENVKRQINDCFITTGERPLVFHSIVKPEIRDIIYSSEGLDYDFLNTFVAPLEQHLGVSASPVLHRTHGKANQGYEARIDAINFAMDNDDGQTMKHMDQADLILLGVSRCGKTPSSLYLSMQFGIKAANYPFTEDDMDNLKLPEALKRNKKKLFGLTIDPVRLHEIRQSRMENSRYSSLKQCRLEVKEVEMMFKRERIPYIDTTNHSVEEIATKILDVTGLERHMFMAGDPLEHHHHHH”, “soluble”; with “MKHIHIIGIGGTFMGGLAAIAKEAGFEVSGCDAKMYPPMSTQLEALGIDVYEGFDAAQLDEFKADVYVIGNVAKRGMDVVEAILNLGLPYISGPQWLSENVLHHHWVLGVAGTHGKTTTASMLAWVLEYAGLAPGFLIGGVPENFGVSARLPQTPRQDPNSQSPFFVIEADEYDTAFFDKRSKFVHYRPRTAVLNNLEFDHADIFADLGAIQTQFHYLVRTVPSEGLIVCNGRQQSLQDTLDKGCWTPVEKFGTEHGWQAGEANADGSFDVLLDGKTAGRVKWDLMGRHNRMNALAVIAAARHVGVDIQTACEALGAFKNVKRRMEIKGTANGITVYDDFAHHPTAIETTIQGLRQRVGGARILAVLEPRSNTMKLGTMKSALPVSLKEADQVFCYAGGVDWDVAEALAPLGGRLNVGKDFDAFVAEIVKNAEVGDHILVMSNGGFGGIHGKLLEALR”, “soluble”.
With “MGSDKIHHHHHHMKIDRLISIIIVLLRRERVQAKELAEMFGVSVRTILRDVDTINLGGIPIITYQGVNGGISIAEGYRLDKSVLSAGDMATLISTLKGVAASIPDSRFDILAEKLKNPLSTSQLELLDLKSRQMIIDLSPWGTNEQLKGKITLLRQAIENYREIEFAYIDAAGTRSIRQVEPYALLLKGQSWYLFAWCLLRQDFRLFKLIRIKNLQLVNITYQPREVPMEQDYFENQWQETARPVELDLLFDKEMENVVEECFGGDIMRQDDGRIMVKVCLPENNWLYGYLLSFGGGMEVVNPPHIRSILAAIAEKIYKTYSS”, the “soluble on expression in E. coli” value is “not soluble”.
Consider “ANADNYKNVINRTGAPQYMKDYDYDDHQRFNPFFDLGAWHGHLLPDGPNTMGGFPGVALLTEEYINFMASNFDRLTVWQDGKKVDFTLEAYSIPGALVQKLTAKDVQVEMTLRFATPRTSLLETKITSNKPLDLVWDGELLEKLEAKEGKPLSDKTIAGEYPDYQRKISATRDGLKVTFGKVRATWDLLTSGESEYQVHKSLPVQTEINGNRFTSKAHINGSTTLYTTYSHLLTAQEVSKEQMQIRDILARPAFYLTASQQRWEEYLKKGLTNPDATPEQTRVAVKAIETLNGNWRSPGGAVKFNTVTPSVTGRWFSGNQTWPWDTWKQAFAMAHFNPDIAKENIRAVFSWQIQPGDSVRPQDVGFVPDLIAWNLSPERGGDGGNWNERNTKPSLAAWSVMEVYNVTQDKTWVAEMYPKLVAYHDWWLRNRDHNGNGVPEYGATRDKAHNTESGEMLFTVKKGDKEETQSGLNNYARVVEKGQYDSLEIPAQVAASWESGRDDAAVFGFIDKEQLDKYVANGGKRSDWTVKFAENRSQDGTLLGYSLLQESVDQASYMYSDNHYLAEMATILGKPEEAKRYRQLAQQLADYINTCMFDPTTQFYYDVRIEDKPLANGCAGKPIVERGKGPEGWSPLFNGAATQANADAVVKVMLDPKEFNTFVPLGTAALTNPAFGADIYWRGRVWVDQFWFGLKGMERYGYRDDALKLADTFFRHAKGLTADGPIQENYNPLTGAQQGAPNFSWSAAHLYMLYNDFFRKQ”, for which the “soluble on expression in E. coli” value is recorded as “soluble”.
On to “MGSDKIHHHHHHMRKERDYLGKLEIEGEVYYGIHTKRALMNFPSTGEKLDETFIWAYFMVKKACALLNTELGYLDERTGNAIVKACDEWEDLKKHVVVDPLSGGAGTSINMNVNEVIANRATEILGGKKGEYLVDPIDHVNLHQSTNDTFPTSAKIATIVKLRRLIDEVINLQEKIQEKEKEFYSIRKPGRTQLMDGPPIMLGQEFGAFADALARDRWRLYKVEERIRSVNIGGTAIGTGVGAPKDYILKIVEKVREVTKVKIAKAENLIDATQNWDVFAEVHGLLKSLAVNLYKISNDIRLLGSGPNTVIGELILPAVQAGSSIMPGKINPVVSEYVMQICHMVFGHDMILNHACALGNLELNQFAPLIVHLTLKSLTLLTNACRSLASYISKIKANNERCEEHLRRSVSNLTPLIKLFGYEAVSEAIKKANWDIKKAVEILSQEKNIPVEEILKVLNLKKMTGLGYSL”, for which the “soluble on expression in E. coli” value is “not soluble”.
For the sequence “MNCREGCGACCIAPSISTPIPGMPQGKPAGERCLHLSVEHLCGLFGLPERPAVCGAFLADPEVCGESREEAIRLIGWWEQVTAALEHHHHHH”, the “soluble on expression in E. coli” value was “not soluble”.
For the sequence “QSTVKIILEEDTETLDEVVVVGYGVQKKSDVTGAMARVTSKVIEDRPVQNALQAMQGRVTGVDITSNNRPGELGDIRIRGNRSLTADNNPLYVIDGIPMSAGSIADVNPSDIESMEILKDASATAIYGSRGANGVILVTTKKGKTGR”, the “soluble on expression in E. coli” value is given as “not soluble”.
As for “MQVLLLEDEPRLGQAVARALAAQGYGVRWARSLGEAREAFLELEPDLMVLDVRLPEDEDGGFRFAKEAREAGYKGPILFLTARDALEDRVQGLDLGGDDYLVKPFHLEELLARVRALLRRASEVKASRVRLGPLEVDLAGRGVYLAGRRVDLSLKEFALLETLLLHPGRVFAPEELAERVFGDPEKVGAVKVYVHYLRQKLFPEVVRTVPGGYRLGHEP”, the “soluble on expression in E. coli” value is “soluble”.
With “MNMYRVIEMYGDFEPWWFLEGWEEDIVASRKFDQYYDALKYYKTCWFRLEQESPLYKSRSDLMTIFWDPEDQRWCDECDEYLQQYHSLALLQDEQVIPDEKLRSGYEKQTSQERNRSCRMKLKLEHHHHHH” the entry was “soluble”; with “MTTPLKKIVIVGGGAGGLEMATQLGHKLGRKKKAKITLVDRNHSHLWKPLLHEVATGSLDEGVDALSYLAHARNHGFQFQLGSVIDIDREAKTITIAELRDEKGELLVPERKIAYDTLVMALGSTSNDFNTPGVKENCIFLDNPHQARRFHQEMLNLFLKYSANLGANGKVNIAIVGGGATGVELSAELHNAIKQLHSYGYKGLTNEALNVTLVEAGERILPALPPRISAAAHNELTKLGVRVLTQTMVTSADEGGLHTKDGEYIEADLMVWAAGIKAPDFLKDIGGLETNRINQLVVEPTLQTTRDPDIYAIGDCASCPRPEGGFVPPRAQAAHQMATCAMNNILAQMNGKPLKNYQYKDHGSLVSLSNFSTVGSLMGNLTRGSMMIEGRIARFVYISLYRMHQIALHGYFKTGLMMLVGSINRVIRPRLKLH”, “not soluble”; with “MSNVAKSYKSSDPVIAYCSEHTTIQSPLQAELLKETLDNAPMSMMLGAPEVLTFGQNFIRSFGGRRVIDVGTYTGASALAWALAVPDDGEVFTFDIDHTNYKKFGVPIISKCEKTFKKIRAIEGSALDGLDKLIADGQSGTFDFAFIDADKVNYSNYYDRAVTLLRKGGVIFVDNSLWNGSVCDPARRTEPSTVAIHQANDKIFKDDRTYSALINLGDGTHIAFKK”, “not soluble”.
With “MEKYLPILRNSPFFKGLSDNEILSILHCVNATVISKERASYIFRAGDSTEVMGLVVSGCVLVMQEDLWGHRNILSKCHAGDFFGEPYAASLGAVLNISVAADEDCEIIFLNVQRLLVTCQTACEHHQKLIRNLVSVLANKILILNDKITHVGKRTTRDKLLSYLSAESIRRSSLSFDIPFDRQQLADYLCIDRAAMSTEISKLQKEGFIKTNRNHFELIACNETDLQADK” the entry was “not soluble”; with “MGSDKIHHHHHHMKYEIVLKGSYALLKVFLSTGESVVVEPGAMVYMKGPIEVKTSATGGVWKALKRAILGGENFFMNTYISRGESEIGLAPQLPGDIDVIPLKDILYVQSTSFLACDPSVEMDVSFGGLKSFFSGEGIFLLKFIGHGDVAVSSFGGIKSVELQPGEEFTVDTGHVVAFDGTVKWNVRTFGGLKSTLFGGEGLVCTFTGPGRVYIQTRNYPAFVEWIKSLVPRQTGSR”, “not soluble”.
